Literature values in publication doi:10.1101/2025.11.30.690581.

Experiments:
Lys66 = Lys66 (UniProt position 148, FTKKMKENAKK); test: stability; conditions: apparent pKa of the native-state ensemble in the reference Δ+PHS background
Lys92 = Lys92 (UniProt position 174, RGLAYKYADGK); test: stability; conditions: apparent pKa of the native-state ensemble in the reference Δ+PHS background

Substance | pKa (Lys66) | pKa (Lys92)
Staphylococcal nuclease Δ+PHS V66K (reference protein with Lys-66) (Staphylococcus aureus; G50F;V51N;P117G;H124L;S128A;del44-49;V66K) | 5.7 | –
Staphylococcal nuclease Δ+PHS I92K (reference protein with Lys-92) (Staphylococcus aureus; G50F;V51N;P117G;H124L;S128A;del44-49;I92K) | – | 5.2
